Test results reported in the supplement of paper PMC9170038.

Legend:
MS2 coat protein = experiment: apparent KD of MS2 coat protein; higher = weaker reporter binding; conditions: Eterna round: R107
Procedure: (§1)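 RNA-MaP round R107: designed RNA switches with theophylline, tryptophan, arginine or FMN aptamers are transcribed on-chip within common flanks. They are titrated with SNAP-549-labelled MS2 coat protein in RNA-MaP buffer (100 mM Tris pH 7.5, 80 mM KCl, 4 mM MgCl2), without ligand or with the indicated ligand. Median apparent KD per design.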

[1] = tested on: K4 kissing-loop RNA reporter; experiment: apparent KD of K4 kissing-loop reporter; higher = weaker reporter binding; conditions: Eterna round: R107;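 further: bound reporter read as fluorescence of individual clusters on recovered sequencing chips by microscopy, with normalized cluster intensities fitted with a binding model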
Procedure: as §1, with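 “a labelled K4 kissing-loop RNA reporter” for “SNAP-549-labelled MS2 coat protein”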

[2] = input ligand: theophylline 20 uM
[3] = input ligand: tryptophan 2.4 mM
[4] = input ligand: theophylline 2 mM

| Sequence | apparent KD of MS2 coat protein (MS2 coat protein; input ligand: arginine 13.2 mM) [nM] | apparent KD of MS2 coat protein (MS2 coat protein; [2]) [nM] | apparent KD of MS2 coat protein (MS2 coat protein; [3]) [nM] | apparent KD of MS2 coat protein (MS2 coat protein; [4]) [nM] | apparent KD of MS2 coat protein (MS2 coat protein; input ligand: none) [nM] | apparent KD of K4 kissing-loop reporter ([1]; input ligand: FMN 200 uM) [nM] | apparent KD of K4 kissing-loop reporter ([1]; input ligand: arginine 13.2 mM) [nM] | apparent KD of K4 kissing-loop reporter ([1]; input ligand: none) [nM] | apparent KD of K4 kissing-loop reporter [1, 2] [nM] | apparent KD of K4 kissing-loop reporter [1, 3] [nM] |
| --- | --- | --- | --- | --- | --- | --- | --- | --- | --- | --- |
| AGACAUGAGGAUCACCCAUGUAGUACGGAUACCAGAUCCAGAUGCGUCCCUUGGCAGCUGUGGUACAGCGUUACAUCGCUCGUAG [Exclusion - Theophylline A (Freestyle 23)] | 16 | 29.9 | 18.6 | – | – | – | – | – | – | – |
| AAUGUAUGGCACAUGAGGAUCACCCAUGUGCGAGGACCGGUACGGCCGCCACUCGGUCGGUGGUUAAUGAAGCUAUACAUUAAUG [XTryp A #13] | 26.8 | 53.5 | – | 55.1 | – | – | – | – | – | – |
| AAAGGUCGCAAUAAAUCUCCUACAUGUGAAGGAGCGCGCGAAAGCGCAGGUAGGUCGCACAUGAGGAUCACCCAUGUGAGCGACC [MAT - Exclusion Arginine A - Mod of Eli - D3] | 9.41 | 14.5 | 10.8 | 13.1 | 11.5 | – | – | – | – | – |
| GUAUGGAAACAUACUUGGGUAUCAUGAGAUACCAGUACAGAAAUGUACCCUUGGCAGCUCAAGCAUACAUGAGGAUCACCCAUGU [Ex Theophylline A 8] | 22.5 | 22.5 | 15.4 | – | – | – | – | – | – | – |
| ACCUGUACGAAAAGUGCAGGACAUGGAAAUCGAGGACCGGUACGGCCGCCACUCGUUGAAAACAAGUGGAUCACCCUUGUCCAUG [TrypAS 3 #AlternativeMS2 #Zipper #StaticStem] | 35.3 | 764 | 1070 | 872 | 417 | – | – | – | – | – |
| AACAUACAAUAUUAGGUGGAUAUAAGGCGGCGAGGACCGGUACGGCCGCCACUCGCGUACAUGAGGAUCACCCAUGUCUGAAACU [Same State - Tryptophan A (Freestyle 4)] | 16.6 | 26.8 | – | 24.3 | – | – | – | – | – | – |
| AUGCAUAGCCGAAGGAGCGCAAUAGAAUGACAUGAGGAUCACCCAUGUGUGUGAUGUGGAUUGCAGGUAGGUCGCGGAGUGGUAU [Exclusion - Arginine B (Freestyle 4)] | 34.2 | 52.6 | 30.5 | 48.1 | 37.7 | – | – | – | – | – |
| UAUGCACAUGAGGAUCACCCAUGUAUGGAAGGAGCGGUGAAUAAACCAGGUAGGUCGCCAUGGUGAGGAUCAUCUAUGUAAUCGU [Exclusion - Arginine A (Freestyle 6)] | 62.3 | 125 | 87.8 | 103 | 93.2 | – | – | – | – | – |
| AGAGUUAGACAAAAGUCUAGCUCACCAGAAGGAGCGUCCGAAAGGACAGGUAGGUCGCUGGUGCAUGAGGAUCACCCAUGUUCCU [ArgAS 20 #OpenEnded #AlternativeMS2] | 26.9 | 211 | 150 | 313 | 115 | – | – | – | – | – |
| GAACAACAUGAGGAUCACCCAUGUCAGGAUACCAGUCGAAAGUCAGACCCUUGGCAGCCUAUCACUCAGCAAAUAGAUAGUACAA [theeternabot_sameState_MS2_Theo_A_12] | 14.7 | 20.4 | 16.2 | – | – | – | – | – | – | – |
| UAUAUAUAUAUUGAUACCAGCAGAGAAAACGUAUAUCCUAACAUGAGGAUCACCCAUGUAUGCCCUUGGCAGCGAUAUAUAUAUA [8.B] | 21.2 | 31 | 24.9 | – | – | – | – | – | – | – |
| AUACCUAGUGAGUCGUGUUUCUUUUCAGAUACCAGACUUUUCGUUGUCCCUUGGCAGCUGUUUUACAUGAGGAUCACCCAUGUUG [JR_ExcTheophyA_Sub007] | 16.1 | 18.4 | 15.2 | – | – | – | – | – | – | – |
| UCGCCCGGGUCGGCCGCCACUGAGGUAAUAUGACAUGAGGAUCACCCAUGUUGUCAUGUGGAACAUAGGACCGGGACCCGGGCGA [Exclusion - Tryptophan B Attempt #1 (HarryS)] | 9.15 | 15.1 | 13.4 | 15.2 | 8.61 | – | – | – | – | – |
| ACGAUAGGACCUGAGGAUCACCCUGGUGAUACCAGCCUGGAAACAGGCCCUUGGCAGCACAAAUACUCCAAUAACCUAUCGAAUA [TheoAX 13 #MicroSwitchBubble #AlternativeMS2] | 245 | 698 | 1070 | 1100 | 611 | – | – | – | – | – |
| GGUGGCGUGACGGAUACCAGCCACCACCGCAAGGCCACAUGAGGAUCACCCAUGUUGGGUGGCCCUUGGCAGCUGUCGUGCGGCG [#1 Same State - Theophylline B Attempt #20 (HarryS)] | 451 | 324 | 341 | 431 | 263 | – | – | – | – | – |
| AGAACCCAAGAGGAUACCAGAACGACAAUCAAAUCUUUUUACAUGAGGAUCACCCAUGUUUUCCCUUGGCAGCCUCAUGCACGAC [theeternabot_exclusion_MS2_Theo_B_43] | 47.1 | 108 | 59.6 | – | – | – | – | – | – | – |
| UGUAUAUACGGAAGGAGCGUGUAAGAUUAAGAACAUGAGGAUCACCCAUGUUUUAAGGGAACACAGGUAGGUCGCCGUAUAUAUG [11.O] | 9.29 | 14.1 | 10.3 | 11.7 | 12.4 | – | – | – | – | – |
| UAUAUAUAUAGGGAUACCAGCAGAGAAAACGUUUAUCCUAACAUGAGGAUCACCCAUGUAUGCCCUUGGCAGCUUUAUAUAUAUA [8.F] | 23.6 | 27.6 | 24 | – | – | – | – | – | – | – |
| UGGGAUGUUAAAGGAUAUAGCAAGUGAUAUAAGAAAGUGAGUGAUGUUUAUGUAGGUGAUGAUAUGUUAGAAGGUUAACAAAACG [abcdefgh] | – | – | – | – | – | 296 | 158 | 211 | 185 | 218 |
| UUUAUAAAGUCGGCCGCCACUGGAUUUAUGUUUGUUUCGUCUGGAUCAAAGUGAUGUUUUGAGUCCAGGACCGGGACAUUUGUUA [whbob_Ex_Tryp_B_w38] | – | – | – | – | – | 88.9 | 74.8 | 81.2 | 73.5 | 113 |
